Test results from article doi:10.1101/2025.06.28.662095.

Key:
[1] = target: MtSteAΔTM (M. tuberculosis SteA truncated soluble construct, residues 12-344) (Mycobacterium tuberculosis); assay: crystal structure
[2] = target: MtSteAΔTM (M. tuberculosis SteA truncated soluble construct, residues 12-344) (Mycobacterium tuberculosis); assay: SEC-SLS

Q: Which results are given for “MtSteAΔTM (M. tuberculosis SteA truncated soluble construct, residues 12-344) (domain or fragment)”?
A: stoichiometry N [1]: 2; stoichiometry N [2]: 2
